Experimental data taken from patent US20190203229, “cis AND trans REQUIREMENTS FOR […] RESOLUTION OF HUMAN BOCAVIRUS 1” (University of Iowa Research Foundation, published 2019).

Biological target: GST (UniProt P08515 P08515:1-218)
Assay: EMSA; negative control
Details: label: 32P or biotin

GST, sequence (P08515 whole entry, one chain of several): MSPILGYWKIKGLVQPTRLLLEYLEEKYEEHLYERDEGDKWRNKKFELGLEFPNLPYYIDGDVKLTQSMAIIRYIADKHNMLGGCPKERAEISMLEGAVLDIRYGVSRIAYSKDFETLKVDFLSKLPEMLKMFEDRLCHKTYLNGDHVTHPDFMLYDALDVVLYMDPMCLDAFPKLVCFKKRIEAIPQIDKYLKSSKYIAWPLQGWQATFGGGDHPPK

B1: B19V Ori (dsDNA)
DNA 1: GCCGCCGGTCGCCGCCGGTAGGCGGGACTTCCGGTACA
DNA 2: TGTACCGGAAGTCCCGCCTACCGGCGGCGACCGGCGGC
  binding result: no binding
